This data set can be described thus: label from the status in PepcDB records.

“MVKTMAKKKAVKVLRKQKKRETLRRFTQKQNIGRACLTAQEFRLLQRMSHSSKALRNVGLYTMKQSYLNHNKMATVKEVDIAMQADMNYWGIQSNSLQAIRRALFTEVKSFFKALEKWKKNPEKFTGRPKFPNYSHSTDKRIIEIYQVPKVDENGFWMIPMSVAFRKKFGSIKIRMPKNLRNKNISYIEIVPKQKGRFFEVHYTYEMHVSQMKKQPMTTSNALGCDLGVDRLVSCVTNTGDAFLIDGKKLKSINQYFNKTIRNLQQKNVENGLSKRIVTNKIAALWHKRERQIHGYIAQTVGLLFKKVKEFDIDTIVVGYNAGWKQNSHMGKKNNQKFVQIPFHKLIAAIENKCIKEGIRFFKQEESYTSKASFLDKDPVPVWSKDDRTQYRFSGKRITRGLYQSKAGTCIHADINGALNTLQKSQVVELDGNLKVKTPILLEVQKRKAVASRIALEHHHHHH”: the protein production entry is reported as “failed”.

As to “MVKYAKTPKSFINIKDLGFALLETDELDGTIKYSNVTQTRGLQEISVETGGEIVNAYADGSIIESGTTDGEGKISMTMHAFPQEIRELIFNEIYNEAGVYSEERGKQNNYVAVWFKRERRDGSYQQVGLTKVMFADPNLEGKTAEEDWEFSSEESEGTAMHRIADGKRKILFDSSREGANVDSFFQELLNGAYDSKTEVDTGDSTTGESAAEALEHHHHHH”, the protein production entry is “failed”.

In the case of “MVLEYVYCLLAFCLYFMAYCINPDCSQRENPDTSAVCQNCGTPLILQNRYRLRHFLRTDRGSYTEVFAIEDLVNRDQPKVLKSLKEVTPQLERLFQQEASILNTLRHPGLPIGEALFPLVLNTGRQLWCFVMEKIPGEDLQTWLSHHQYVTSYKTALDWLKQLTQILQFVHEEKFFHRDIKPANIMVCPDGKLVLIDFGAARKVTQTIINRESVTIVHSLGYTAPEQRDGHAVVQSDFYALGRTLIYLLTGIDPTGDRAQDLLNWSKYIQDPKTPKKFISLLQVMTDSHPYHRPPTAQAILEKIEKIDQHSHQWPKLLLSATCGVLLLFAGKSLYQEITLPRTCDNILNDYLSCGEESLTPSSFWGNSQPPPAKQLGMEQYRNRNFGAAVNFLETAFQQESDPETLIYLNNAKIHQQFPANQIYTIAVAVPLERRTDIGREILRGVAQAQTEALKKGRALRIIIADDSNREDSKTGNNARKIAQHLVKYRDLLAVLGHYSSEATKNSLPIYSQARVVLISATSTSQNLKDPFFFRTVPSDRIAAQKMVTYLLSALKQNQVAIFYSRGSEYAESLSQAVRESTKSLPLKVIDHQAAFNLASDRFNAITALNQAQTQGAKAIVLIPDAGVGLYNAIPNALRVIQSNINQVWIVAGDSLYSSDSFTSEKAFSSPEIKYTAWAVFWHPLNEINSTFVKEVQNLWKIDILSILSNTNITWRTATSYDATLVLSQAITQNPTRLGIKKTLSQPQFSVTGATGVIQFAGSDRQNGKITMVRVQRNCDDNGFFFIPSDRSLQCQ”, the protein production result is “failed”. The entry for “MVLIALLIALSVERLYHSPAFLHWSFFLERWQHWSAARLTNEKWKSEPLQLVRLLVPALAVGFLVVLLDNLMVTFIVSILSLLLAMNCEPARKSYKAYLKAANRGDEQQVNEHQHALTEFAGQHQPKQLSDSLIWINYRQYIAVMFYFVLFGSFGALVYASLRYAEKQISEPESTKLWQQFMWFADWVPARLAGFGLLIVGHFSRAFPVWVKHSLNPQADPDKLLFNVASKAEDIPQHPDDRTEHIACQLRLMRRQQIFWVCVIAALTLTGWVN” is “failed”. Consider “MVLKRKGLLIILDGLGDRPIKELNGLTPLEYANTPNMDKLAEIGILGQQDPIKPGQPAGSDTAHLSIFGYDPYETYRGRGFFEALGVGLDLSKDDLAFRVNFATLENGIITDRRAGRISTEEAHELARAIQEEVDIGVDFIFKGATGHRAVLVLKGMSRGYKVGDNDPHEAGKPPLKFSYEDEDSKKVAEILEEFVKKAQEVLEKHPINERRRKEGKPIANYLLIRGAGTYPNIPMKFTEQWKVKAAGVIAVALVKGVARAVGFDVYTPEGATGEYNTNEMAKAKKAVELLKDYDFVFLHFKPTDAAGHDNKPKLKAELIERADRMIGYILDHVDLEEVVIAITGDHSTPCEVMNHSGDPVPLLIAGGGVRTDDTKRFGEREAMKGGLGRIRGHDIVPIMMDLMNRSEKFGA”, for which the protein production entry was “not failed”. On to “MVLLEKLWDDVVAGPQPDRGLGRLRKITTQPINIRDIGEGSSSKVVMHRSLTMPAAVSPGTPTTPTTPTTPRKDNVWRSVFNPGSNLATRAIGSNIFDKPTHPNSPSVYDWLYSGDSRSQHR”, for which the protein production result was “failed”. Take “MVLLIVDGIIVAISAIAFSPDTVMYSILSLYVVSLTIDKMMVGLNSSRNLLIISQKSDQILNYITNGADRGATKIPVLGGHTGHSQNMIMTTLSTHEVPKVQEEIQKIDETAFIVIIPASTVMGRGFSLQKDYKSVPNDFINPL”: the protein production result is on record as “failed”.

On to “MVMEYELRTPLVKDQILKLKVGDVVYITGEIFTARDEAHARALEWMEEGKELPFSFDKGVVYHCGPLVKKNDEWRVVSAGPTTSARMNPFTPKILEKVECMGIIGKGGMSEEVVEAMRGKAAYFAFTGGAGALAAMSIKKVKGVVWEDLGMPEAVWLLEVERFGPCIVAIDAHGNSLYRR”, for which the protein production entry was “not failed”.

Turning to “MVMMEQCAWPYIRSVRVRVGERTRAGGEFDLMGTTTRRNASAMKMVGALLALYRQAAGHTQRSLGERFVIGEQQIASIEQGRRPLKPDLAEQLDELLGTKGALSTALSKMPEVDLVPLWAEEFLDREREAIAISSYENQVLPGLLQTEAYAWAVFRSRVPFYDEDTIARLAAARIERQGILQGKEPPITCFVVWEPVVRAPIGGRTVWREQLQRLRACSELPGLMLQVLPQDRTSHAGLNGPFVLLETPEHQRLAYTENQRGSQLIADADEVAILTQKCAMLRSQALTPEDTRDLLDRLLGEQ”, the protein production result is “failed”.

As to “MVMMSKQLTAQAPVDPIVLGKMGSSYGIRGWLRVFSSTEDAESIFDYQPWFIQKAGQWQQVQLESWKHHNQDMIIKLKGVDDRDAANLLTNCEIVVDSSQLPQLEEGDYYWKDLMGCQVVTTEGYDLGKVVDMMETGSNDVLVIKANLKDAFGIKERLVPFLDGQVIKKVDLTTRSIEVDWDPGFLEHHHHHH”, the protein production entry is on record as “failed”. “MVNFEEMTFENIMESMLDAVPATLDKREGSMIWNSLAPAASQIALLYTWLENAFELVFYDTAPDEFLDRAAAPYGVIRKPAVATQRIIKGIDENDNKIEIPEGSRFFVESENIYFKVTSSTILEQVVECEVAGTKGNADFSNDTILSLDNIYGLAKVEIGDILIPGSDEEELETFRKRFFTKIQKDAFSGNKNHYKLWAEEVLGVGKAKIYPLGYGEGTVKIVITDTNLHPASPTLVEQVRNYIDPLPQKGEGVAPIGAKVFIESAAWKTINISGQLVLKDGKSVNDVIEEITMDINKLFKSITFPEDELTSVKLAVISNIIFSAPSVLDNFNIKLNNEAANIILAENEVPQLGAFSFELILEHHHHHH”: the protein production result is reported as “failed”. Regarding “MVNLGAMLFRGRGVKLSQQFAVIGLGRFGRGVCETLHGMGYEVLGSDNQERLVNQVLQDHIVDHAIQLDATDPQALKEAGIFEFETVIVAIGNHLDASIITTLNLKEAGVPKVIAKASSEVHKKLLERVGADRVVFPEYEAGCELARSLTRPAILDCLNLDPQKSIVEVKVPEAFHGRTVAEVELRSRYGLNLIALRFDDKFEINPSPSQKLHQGDIMVVIGDNNDIERFLRSQHVH”, the protein production entry is reported as “failed”.

Consider “MVNPTIPDDLLAKIAKTVAHKCWWDLQPLLRSGRRGRDVVYRPDVLKGANIFSMCEDPDDYQVDGSHHPSGPQEEGRHRAFFKRCVDAGNPTTMYFEALCVLTHERDIKGAINLLRPHVPSQAHATLACAILYIIDGNDYMGAIFLNLFGRNHYPLGTEETRDLCEEFLEDLKKFRPPYNNTYGSTFSYPNSHGIKTPDCALLCYIVSGPFKNVCNCCYLWWCARRVSQML”, for which the protein production result is on record as “failed”.

Consider “MVNTRNIIRQFTPNWFTTIMGTGVVAIVLGHFSELHTLGAALWLINTCLFCVFCILYMLRWSLFPHEARQIFHHPSMSLFLGAIPMALATLINGLLMYGNTVFGQHLPQLALWLWYIDVVLVISIGWVVPYFMFSRQQHHLHSITAMWLLPIVAAEVAAATGGLLVAEFVHSTQAISILWLSYMLWGMSVLPAFAILSLLILRLALHKLPEKELAISSWLSIGPIGTGALAMMLLGQHAPDVLQSIGMQSFGIFLQQAAKLISLVLLGCGVWWLGIAMFASLHHLKHGIPFNLGWWGLTFPLGVFTLALSQLGQLLGWNAFDHIAVILSVILVGLWSCVAVKTIQGAYRGQLFFSPCLQQLQQQQKACAQSETA”, for which the protein production entry was “failed”. The entry for “MVNVDHDRFTTLVHELNQAKYEFHYKCAELVSNHEAAQPKKVLDEKKMDLEKLYEKVKEVMKKMVAFAENPKKEG” is “failed”.

Source of the values: a protein production outcome set (Wang et al. 2014).
